Measurements: PMC2665239 (Nucleic Acids Research, 2009)
Read-outs that look alike come from different tables or passages of the source. Blank lines part the entries; values can stand above or below the binder they belong to.

What was measured:
[1] = target: T1, His-tagged ttPOLXc domain (N-terminal domain of ttPolX, residues 1-379) (Thermus thermophilus HB8, UniProt Q5SJ64 1-379); assay: SEC
T1 sequence (looked up): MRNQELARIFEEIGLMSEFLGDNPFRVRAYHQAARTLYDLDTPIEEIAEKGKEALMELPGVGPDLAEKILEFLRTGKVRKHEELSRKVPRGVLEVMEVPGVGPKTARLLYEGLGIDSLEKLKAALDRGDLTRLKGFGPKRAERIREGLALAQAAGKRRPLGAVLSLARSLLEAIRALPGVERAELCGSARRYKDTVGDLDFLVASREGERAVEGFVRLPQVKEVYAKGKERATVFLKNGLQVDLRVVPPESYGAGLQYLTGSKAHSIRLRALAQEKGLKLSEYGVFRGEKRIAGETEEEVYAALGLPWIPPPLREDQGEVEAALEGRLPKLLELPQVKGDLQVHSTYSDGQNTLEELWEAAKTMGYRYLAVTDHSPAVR

[2] = target: T2, ttPHP domain (Thermus thermophilus HB8, UniProt Q5SJ64 339-575); assay: EMSA
T2 sequence: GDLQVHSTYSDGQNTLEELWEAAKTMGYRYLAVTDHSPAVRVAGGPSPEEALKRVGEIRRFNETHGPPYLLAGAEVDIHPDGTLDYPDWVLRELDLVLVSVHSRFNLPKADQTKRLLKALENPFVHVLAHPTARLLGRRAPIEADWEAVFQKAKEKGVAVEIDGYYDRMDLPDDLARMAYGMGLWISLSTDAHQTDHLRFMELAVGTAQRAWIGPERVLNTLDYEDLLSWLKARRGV

[3] = target: T3, ttPolX (Thermus thermophilus HB8, UniProt Q5SJ64 1-575); assay: EMSA
T3 sequence: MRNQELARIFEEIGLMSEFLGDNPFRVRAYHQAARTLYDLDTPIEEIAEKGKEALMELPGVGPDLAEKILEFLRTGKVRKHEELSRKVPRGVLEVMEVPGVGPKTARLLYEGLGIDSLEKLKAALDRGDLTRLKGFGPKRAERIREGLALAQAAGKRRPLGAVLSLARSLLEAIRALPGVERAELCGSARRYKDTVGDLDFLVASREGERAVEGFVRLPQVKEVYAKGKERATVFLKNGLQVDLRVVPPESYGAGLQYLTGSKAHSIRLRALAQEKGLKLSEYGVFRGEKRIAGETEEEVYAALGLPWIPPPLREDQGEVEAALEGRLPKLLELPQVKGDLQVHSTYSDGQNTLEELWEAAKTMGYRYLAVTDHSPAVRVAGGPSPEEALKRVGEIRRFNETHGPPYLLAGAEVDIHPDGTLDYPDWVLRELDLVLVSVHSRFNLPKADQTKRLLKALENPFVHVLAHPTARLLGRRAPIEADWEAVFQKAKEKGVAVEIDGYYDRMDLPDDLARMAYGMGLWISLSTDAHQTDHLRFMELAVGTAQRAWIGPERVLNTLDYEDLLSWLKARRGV

[4] = target: T4, ttPOLXc domain (Thermus thermophilus HB8, UniProt Q5SJ64 1-379); assay: EMSA
T4 sequence: T1 sequence (looked up)

[5] = target: T4, ttPOLXc domain; assay: EMSA; remark: listed apart in the source
[6] = target: T3, ttPolX; assay: EMSA; remark: listed apart in the source
[7] = target: T4, ttPOLXc domain; assay: EMSA; remark: listed apart in the source
[8] = target: T3, ttPolX; assay: EMSA; remark: listed apart in the source
[9] = target: T4, ttPOLXc domain; assay: EMSA; remark: listed apart in the source
[10] = target: T3, ttPolX; assay: EMSA; remark: listed apart in the source

stoichiometry N [1]: 1 ttPOLXc:ttPHP molar ratio
B1: His-tagged ttPHP domain (C-terminal domain of ttPolX, residues 339-575) (domain or fragment, Thermus thermophilus HB8, UniProt Q5SJ64 339-575, looked up)
chain: T2 sequence

Binder: CACTGGCGGTCGTTCTATCGGGTGTTGCTTTAGTTGTCAT (ssDNA) [40T ssDNA]
binding result [2]: no binding | Kd [3]: 1.2 ± 0.7 µM | Kd [4]: 5.5 ± 1.7 µM

B2: 40T/40C dsDNA (dsDNA)
DNA 1: CACTGGCGGTCGTTCTATCGGGTGTTGCTTTAGTTGTCAT
DNA 2: ATGACAACTAAAGCAACACCCGATAGAACGACCGCCAGTG
binding result [2]: no binding | Kd [5]: 9.3 ± 3.8 µM | Kd [6]: 1.2 ± 0.7 µM

B3: 21F/40T/P18G 5'-phosphorylated 1-nt gapped DNA (dsDNA)
DNA 1: B2 DNA 1
DNA 2: ATGACAACTAAAGCAACACCC
DNA 3: ATAGAACGACCGCCAGTG
modifications: 5'-phosphate on 18G (P18G)
binding result [2]: no binding | Kd [7]: 4.8 ± 2.5 µM | Kd [8]: 0.3 ± 0.18 µM

B4: 21F/40T/18G 1-nt gapped DNA (dsDNA)
DNA 1: B2 DNA 1
DNA 2: ATGACAACTAAAGCAACACCC
DNA 3: ATAGAACGACCGCCAGTG
binding result [2]: no binding | Kd [9]: 6.5 ± 2.5 µM | Kd [10]: 0.39 ± 0.15 µM
